# Reference: PMC11076555, “Dishevelled2 activates WGEF via its interaction with a unique internal peptide motif of the GEF” (Communications Biology, 2024)
# T1: Dvl2^PDZ (PDZ domain of human Dishevelled2) (Homo sapiens, UniProt O14641)
# T1 construct: introducing a stop codon after C354 residue of Dvl2^PDZ to eliminate the fused peptide, cloned at the C-termini of PDZ; 6xHis (N, cleaved yes); host or cells: E. coli Rosetta (DE3)
# T1 sequence (O14641 267-339 limits assumed): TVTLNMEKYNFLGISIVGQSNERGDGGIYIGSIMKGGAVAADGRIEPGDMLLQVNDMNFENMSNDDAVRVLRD
# Columns and labels:
# [1] = biological target: T1, Dvl2^PDZ (PDZ domain of human Dishevelled2); assay: Microscale thermophoresis (MST) binding to Dvl2^PDZ; conditions: Monolith NT.115, 50 nM Red-maleimide labelled Dvl2^PDZ, 10 mM Tris–HCl pH 8, 150 mM NaCl, 2 mM DTT, 5% glycerol, 0.05% Tween20, 30 min at 25 °C, peptides diluted 1:2 16 times from ~3.4 mM, hWGEF 138–0.0042 µM, Kd fit model, triplicates, read-out: Kd (dissociation constant) for Dvl2^PDZ
# Description: MST experiments were performed using Monolith NT.115 instrument from Nanotemper technologies. Dvl2^PDZ domain was fluorescently labelled as per the instructions, using Monolith Redmaleimide 2nd generation-cysteine reactive label. The experimental condition consists of 10 mM Tris–HCl pH8, 150 mM NaCl, 2 mM DTT, 5% Glycerol and 0.05% Tween20. For Dvl2^PDZ-peptide affinity determination, synthetic WGEF peptides were serially diluted (1:2) 16 times, starting from an approximate concentration of 3.4 mM. 50 nM of fluorescently labelled Dvl2^PDZ domain was added to the serially diluted peptides, followed by incubation at 25 °C for 30 minutes. Thermophoresis signals were recorded at 20% of excitation power and 40% MST at 25 °C. Data was fitted using the Kd fit model in the MO. Affinity Analysis v2.3 software. Like peptides, hWGEF (330–581) protein was serially diluted to obtain a protein concentration range of 138–0.0042 µM. Experimental conditions were the same as mentioned above for peptides. […]
# Guanine nucleotide exchange assays were performed in triplicates. Fluorescence decrease was fitted using a single exponential decay mode in GraphPad Prism. […] Statistical significance was calculated using ordinary One-way ANOVA with multiple comparisons. * Represents adjust P value with statistical significance of ****P < 0.0001, ***P < 0.001, **P < 0.01 and *P ≤ 0.01. […]
# xWGEF330 = assay: In vitro guanine nucleotide exchange (GEF) assay, activation of xWGEF330 by Dvl2^PDZ; assay type: biochemical, Xenopus laevis; conditions: 5 µM xWGEF330, 2 µM Mant-GDP loaded RhoA, 25 °C, triplicates
# Description: Guanine nucleotide exchange assays were carried out using RhoA loaded with fluorescently labelled Mant-GDP[63],[64]. Briefly, 150 μM of RhoA was incubated with 5 Molar excess of fluorescent label, i.e., Mant-GDP in a buffer containing 10 mM Tris pH 8, 150 mM NaCl, 2 mM DTT, 5 mM EDTA, 0.5 mM MgCl2 and 5% Glycerol. The reaction was incubated on ice for 30 min, followed by the addition of 10 mM MgCl2 to stop the reaction. Excess Mant-GDP was removed through buffer exchange and Mant-GDP loaded RhoA was concentrated and stored at −80 °C. For assays, 2 μM of Mant-GDP loaded RhoA was incubated with 5 μM of xWGEF in the presence or absence of hDvl2^PDZ (0 μM, 25 μM and 50 μM) for 30 min at 25 °C. […] Once the fluorescence was stable, excess GTP (10x of labelled GTPase) was added to start the exchange reaction. […] A decrease in fluorescence was recorded using a BioTek Cytation5 plate reader with excitation and emission of 360 and 440 nm, respectively. Fluorescence was normalized and decrease was fitted using a single exponential decay mode in GraphPad Prism. […]
# Guanine nucleotide exchange assays were performed in triplicates. Fluorescence decrease was fitted using a single exponential decay mode in GraphPad Prism. […]
Kd [1],Molecule,Change in GEF activity of xWGEF330 (xWGEF330; 25 µM Dvl2^PDZ),Change in GEF activity of xWGEF330 (xWGEF330; 50 µM Dvl2^PDZ (10-fold excess))
7.9 ± 0.3 µM,"hWGEF: recombinant human WGEF construct, residues from 330 to 581 (protein, left off: GST, N-terminal, cleaved) PPRANLSPSSSFRAQRSARGSTFSLWQDIPDVRGSGVLATLSLRDCKLQEAKFELITSEASYIHSLSVAVGHFLGSAELSECLGAQDKQWLFSKLPEVKSTSERFLQDLEQRLEADVLRFSVCDVVLDHCPAFRRVYLPYVTNQAYQERTYQRLLLENPRFPGILARLEESPVCQRLPLTSFLILPFQRITRLKMLVENILKRTAQGSEDEDMATKAFNALKELVQECNASVQSMKRTEELIHLSKKIHFEG",,
,"Dvl2^PDZ: recombinant PDZ domain of human Dishevelled2 (protein, Monolith Red-maleimide 2nd generation cysteine-reactive fluorescent label (in the MST experiments); left off: His6, N-terminal, cleaved, recombinant PDZ domain of human Dishevelled2) MSLNIITVTLNMEKYNFLGISIVGQSNERGDGGIYIGSIMKGGAVAADGRIEPGDMLLQVNDMNFENMSNDDAVRVLRDIVHKPGPIVLTVAKC",did not show any observable change,fourfold increase
